Legend:
Assay in all cases: flow cytometry on transiently transfected cells
[1] = molecular target: T1, DcR1 on transiently transfected cells (UniProt O14798 26-236, limits assumed)
T1 construct: whole, on cells
T1 sequence (looked up): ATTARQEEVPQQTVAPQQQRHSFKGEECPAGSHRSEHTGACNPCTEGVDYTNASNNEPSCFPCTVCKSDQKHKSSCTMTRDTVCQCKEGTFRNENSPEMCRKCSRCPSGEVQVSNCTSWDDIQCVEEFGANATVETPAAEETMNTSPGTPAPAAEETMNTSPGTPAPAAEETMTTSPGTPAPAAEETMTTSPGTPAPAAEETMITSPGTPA
Description: (§1) One million cells, in 0.1 ml of FACS buffer (PBS, 0.1% BSA, 0.1% NaN₃), were incubated with 0.1-1 microgram of protein or antibody at RT for 15 min. The cells were washed with 3 ml of FACS buffer, reacted with biotinylated primary antibody, and stained with PE-conjugated secondary antibody at RT for 15 min. Cells were then washed again, resuspended in 0.5 microgram/ml of propidium iodide, and live cells were gated and analyzed on a FACScan using the CellQuest software (BD Biosciences).

[2] = molecular target: T2, AITR on transiently transfected cells (UniProt Q9Y5U5 26-241, limits assumed)
T2 construct: whole, on cells
T2 sequence (looked up): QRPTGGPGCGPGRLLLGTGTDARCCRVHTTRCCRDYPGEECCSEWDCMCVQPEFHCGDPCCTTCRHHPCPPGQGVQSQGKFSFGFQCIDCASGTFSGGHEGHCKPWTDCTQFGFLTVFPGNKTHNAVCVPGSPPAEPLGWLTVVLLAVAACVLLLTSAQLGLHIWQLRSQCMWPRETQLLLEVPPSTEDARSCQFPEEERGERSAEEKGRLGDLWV
Description: as §1

[3] = molecular target: T3, DR5 on transiently transfected cells (UniProt O14763 56-440, limits assumed)
T3 construct: whole, on cells
Description: as §1

[4] = molecular target: T4, HveA on transiently transfected cells (UniProt Q92956 39-283, limits assumed)
T4 construct: whole, on cells
T4 sequence (looked up): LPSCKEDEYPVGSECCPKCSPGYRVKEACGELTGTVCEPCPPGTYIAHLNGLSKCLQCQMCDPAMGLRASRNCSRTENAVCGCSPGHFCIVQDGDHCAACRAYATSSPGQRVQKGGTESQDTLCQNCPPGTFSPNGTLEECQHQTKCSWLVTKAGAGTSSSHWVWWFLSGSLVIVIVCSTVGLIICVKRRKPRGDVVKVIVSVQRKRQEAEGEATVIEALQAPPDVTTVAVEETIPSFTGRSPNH
Description: as §1

[5] = molecular target: T5, 4-1BB on transiently transfected cells (UniProt Q07011 24-255)
T5 construct: whole, on cells
Description: as §1

[6] = molecular target: T6, BCMA on transiently transfected cells (UniProt Q02223 1-184, limits assumed)
T6 construct: whole, on cells
T6 sequence (looked up): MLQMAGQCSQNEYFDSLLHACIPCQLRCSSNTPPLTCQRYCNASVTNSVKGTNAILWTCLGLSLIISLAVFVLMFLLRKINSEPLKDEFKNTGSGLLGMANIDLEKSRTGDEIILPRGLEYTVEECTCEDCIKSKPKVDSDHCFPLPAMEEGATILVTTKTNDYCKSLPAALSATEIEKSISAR
Description: as §1

[7] = molecular target: T7, RANK on transiently transfected cells (UniProt Q9Y6Q6 30-616, limits assumed)
T7 construct: whole, on cells
T7 sequence (looked up): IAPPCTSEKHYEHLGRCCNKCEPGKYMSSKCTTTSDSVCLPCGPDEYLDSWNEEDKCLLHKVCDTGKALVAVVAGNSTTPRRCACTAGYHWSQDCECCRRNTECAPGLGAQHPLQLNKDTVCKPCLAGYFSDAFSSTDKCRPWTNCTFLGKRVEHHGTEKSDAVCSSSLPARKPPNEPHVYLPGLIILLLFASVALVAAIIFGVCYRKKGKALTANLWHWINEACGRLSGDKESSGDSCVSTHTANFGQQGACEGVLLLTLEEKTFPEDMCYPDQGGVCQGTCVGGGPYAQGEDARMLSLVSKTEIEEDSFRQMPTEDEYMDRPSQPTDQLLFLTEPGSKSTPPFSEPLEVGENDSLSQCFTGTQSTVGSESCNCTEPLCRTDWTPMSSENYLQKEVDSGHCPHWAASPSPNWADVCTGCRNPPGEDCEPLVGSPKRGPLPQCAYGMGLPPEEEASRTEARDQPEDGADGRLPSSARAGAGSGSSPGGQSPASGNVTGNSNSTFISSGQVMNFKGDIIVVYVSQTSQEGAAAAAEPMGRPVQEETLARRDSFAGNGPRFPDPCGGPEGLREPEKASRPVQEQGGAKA
Description: as §1

[8] = molecular target: T8, LT R (LTβR) on transiently transfected cells (UniProt P36941 31-435, limits assumed)
T8 construct: whole, on cells
Description: as §1

[9] = molecular target: T9, DR6 on transiently transfected cells (UniProt O75509 42-655, limits assumed)
T9 construct: whole, on cells
T9 sequence (looked up): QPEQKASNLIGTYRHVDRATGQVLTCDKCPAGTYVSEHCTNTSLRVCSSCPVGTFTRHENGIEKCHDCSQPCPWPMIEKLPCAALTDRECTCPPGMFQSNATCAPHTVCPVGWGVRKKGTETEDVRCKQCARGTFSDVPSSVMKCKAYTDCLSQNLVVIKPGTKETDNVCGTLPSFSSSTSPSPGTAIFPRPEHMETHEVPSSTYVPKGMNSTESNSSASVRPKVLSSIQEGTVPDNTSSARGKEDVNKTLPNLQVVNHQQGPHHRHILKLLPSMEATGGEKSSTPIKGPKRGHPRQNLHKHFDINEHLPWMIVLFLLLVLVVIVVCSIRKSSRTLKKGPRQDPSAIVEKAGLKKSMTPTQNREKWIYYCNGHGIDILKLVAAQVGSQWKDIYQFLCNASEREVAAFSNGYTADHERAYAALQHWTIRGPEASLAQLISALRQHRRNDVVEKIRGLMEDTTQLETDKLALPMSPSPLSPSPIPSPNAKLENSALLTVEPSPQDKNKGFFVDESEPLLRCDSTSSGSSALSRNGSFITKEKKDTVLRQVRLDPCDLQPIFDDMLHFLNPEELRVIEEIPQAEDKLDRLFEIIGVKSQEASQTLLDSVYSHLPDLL
Description: as §1

Measured: binding result

T8 sequence (P36941 31-435 limits assumed): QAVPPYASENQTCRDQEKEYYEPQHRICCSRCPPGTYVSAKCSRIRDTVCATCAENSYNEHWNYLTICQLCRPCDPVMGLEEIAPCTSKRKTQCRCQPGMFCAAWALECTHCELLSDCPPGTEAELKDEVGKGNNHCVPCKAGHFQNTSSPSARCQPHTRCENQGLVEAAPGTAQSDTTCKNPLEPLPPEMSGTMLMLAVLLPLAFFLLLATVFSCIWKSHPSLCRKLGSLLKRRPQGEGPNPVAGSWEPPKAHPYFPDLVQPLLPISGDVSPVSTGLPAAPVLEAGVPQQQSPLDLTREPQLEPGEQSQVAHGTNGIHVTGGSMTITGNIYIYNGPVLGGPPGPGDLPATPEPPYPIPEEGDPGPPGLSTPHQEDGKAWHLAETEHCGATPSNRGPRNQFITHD
T5 sequence (Q07011 24-255): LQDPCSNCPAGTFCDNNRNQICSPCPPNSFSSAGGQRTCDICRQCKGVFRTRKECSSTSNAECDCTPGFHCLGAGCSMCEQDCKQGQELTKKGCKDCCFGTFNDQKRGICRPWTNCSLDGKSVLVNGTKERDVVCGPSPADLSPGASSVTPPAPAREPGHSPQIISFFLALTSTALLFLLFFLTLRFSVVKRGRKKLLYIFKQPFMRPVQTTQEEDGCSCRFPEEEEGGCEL

B1: FLAG-tagged soluble form of TNF-gamma-beta (aa 72-251) (ligand)
chain: LKGQEFAPSHQQVYAPLRADGDKPRAHLTVVRQTPTQHFKNQFPALHWEHELGLAFTKNRMNYTNKFLLIPESGDYFIYSQVTFRGMTSECSEIRQAGRPNKPDSITVVITKVTDSYPEPTQLLMGTKSVCEVGSNWFQPIYLGAMFSLQEGDKLMVNVSDISLVDYTKEDKTFFGAFLL
notes: also called FLAG-TL1β; FLAG-TNF-gamma-beta; not shown: FLAG tag of the pFLAG-CMV-1 vector at the amino terminus
no binding: [1] | [2] | [3] | [4] | [5] | [6] | [7] | [8] | [9]

Source: patent US20030198640A1 (Human Genome Sciences, published 2003)
